Test results as given in publication PMC6411929, “H-NS uses an autoinhibitory conformational switch for environment-controlled gene silencing” (Nucleic Acids Research, 2018).

What was measured:
[1] = system: H-NS C-terminal region 84-137; experiment: MST; conditions: MST: 50 mM Tris-HCl, 50 mM NaCl, 2 mM MgCl2, 0.005% Tween-20, pH not stated; anisotropy: 20 mM HEPES pH 7.5, 50 mM NaCl, 2 mM MgCl2, 25 or 37 C, 20 nM DNA
[2] = system: H-NS full length (H-NSFL); experiment: fluorescence anisotropy; conditions: 25 C, 50 mM NaCl, 2 mM Mg2+, MST: 50 mM Tris-HCl, 2 mM MgCl2, 0.005% Tween-20, pH not stated, anisotropy: 20 mM HEPES pH 7.5, 50 mM NaCl, 2 mM MgCl2, 25 or 37 C, 20 nM DNA
[3] = system: H-NS full length (H-NSFL); experiment: MST; conditions: room temperature (25 C), 50 mM NaCl, 2 mM Mg2+, MST: 50 mM Tris-HCl, 2 mM MgCl2, 0.005% Tween-20, pH not stated, anisotropy: 20 mM HEPES pH 7.5, 50 mM NaCl, 2 mM MgCl2, 25 or 37 C, 20 nM DNA
[4] = biological target: H-NS C-terminus (84–137) (Salmonella typhimurium) (UniProt P0A1S2); experiment: MST; 20 nM NT-647-labelled H-NS C-terminus, serial dilutions of the unlabelled partner; 50 mM Tris-HCl, 50 mM NaCl, 2 mM MgCl2, 0.005% Tween-20; 30 min incubation; single-binding-site fit; also repeated at 100, 250, 500 and 1000 mM NaCl
[5] = biological target: H-NSΔs2 with an N-terminal mCherry fusion (mChH-NSΔs2) (Salmonella typhimurium) (UniProt P0A1S2); experiment: dynamic light scattering; hydrodynamic radius against temperature, 5 to 60°C; protein at 125 to 500 μM; 150, 250 or 500 mM NaCl; pH 6, 7 or 8 (100 mM MES, MOPS or HEPES)
[6] = biological target: the molecule itself; experiment: SAXS; H-NS 2-57,C21S in solution at 1-4 mg/ml, 10 to 42°C and a range of salt and buffer conditions (150 mM NaCl, 1 mM EDTA, 20 mM Tris pH 7.5 in Figure 2B); patterns compared with parallel and antiparallel site1 dimer models

For 13 bp AT-rich DNA, the Kd [1] was 14.5 µM.

In the case of “101 bp DNA with four consensus H-NS motifs”, the Kd [2] is reported as 10.2 µM and the Kd [3] is reported as 7.4 µM.

In the case of “H-NS N-terminus (2–57), unlabelled, pET-M construct with N-terminal His6-tag (from UniProt P0A1S2 2-57) (domain or fragment)”, the Kd [4] is reported as 4.1 µM.

Work on “H-NSΔs2 with an N-terminal mCherry fusion (mChH-NSΔs2) (from UniProt P0A1S2 1-137) (natural protein)” yielded a stoichiometry N [5] of 2.

B1: Salmonella typhimurium H-NS_(2–57,C21S) (domain or fragment)
chain: SEALKILNNIRTLRAQARESTLETLEEMLEKLEVVVNERREEESAAAAEVEERTRK
notes: H-NS, Salmonella typhimurium, residues 2-57 (site1) with C21S
With B1 the “stoichiometry N” value [6] was 2.
